Experimental data taken from patent US20230250135A1 (Janssen / Centocor, published 2023).

What was measured:
UFV161721 = UFV161721 (influenza A virus A/Hong Kong/1/68 …); experiment: Binding-AlphaLISA, Expi293F supernatant, normalized to UFV161333
UFV161715 = UFV161715 (influenza A virus A/Hong Kong/1/68 …); experiment: as above
UFV161333 = UFV161333 (influenza A virus A/Hong Kong/1/68 …)
UFV171004 = UFV171004 (influenza A virus A/Hong Kong/1/68 …); experiment: ELISA on purified polypeptide
UFV170051 = UFV170051 (influenza A virus A/Hong Kong/1/68 …); experiment: Binding-AlphaLISA, Expi293F supernatant, reference UFV170051

Binder | binding relative to reference UFV161333 (UFV161721) [%] | binding relative to reference UFV161333 (UFV161715) [%] | fold increase in binding relative to reference UFV161686 (UFV161333) [fold] | EC50 (UFV171004) [nM] | binding result (UFV170051)
SD15013 (VHH) VHH: EVQLVESGGGLVQAGDSLRISCAASGRTLSIYSMGWFRQAPGKEREFVATIGWNSGRTFYPDSLKGRFTISRDNARNTLYLQMNNLRPEDTAVYYCAAAKGPLRLSSQADYWGQGTQVTVSS | ~60 | ~60 | 10 | – | –
CT149 (antibody, V domains shown) VH: QVQLVQSGAEVKKPGASVKVSCKTSGYSFSTYGVSWVRQAPGQGPEWVGWISAYTGITDYAQKFQGRVTLTTDATTATAFLDLRSLRPDDTATYFCARDKVQGRVEVGSGGRHDYWGQGTLVIVSS VL: EVVLTQSPGTLALPPGERATLSCRASHRVGSTYIAWYQQKSGQAPRRLIYGASNRATDIPDRFSGSGSGTDFTLTIRRLEPEDSAVYYCQQFSVSPWTFGQGTRVEIK | – | ~90 | – | < 0.01 | binds
